According to patent US20200407442A1 (WUXI BIOLOGICS IRELAND, published 2020):
Residue numbers refer to the chain shown, from its start. Each block holds one binder with its values, some of them ahead of it.

Key:
Test in all cases: ELISA, antibody coated, LAG-3 D12.mFc mutant in supernatant, normalised to control mutants
[1] = biological target: T1, human LAG-3-ECD.D12.mFc mutant W92A (human, UniProt P18627 37-252)
T1 construct: Alanine scanning mutant; construct limits as for m26
T1 chain: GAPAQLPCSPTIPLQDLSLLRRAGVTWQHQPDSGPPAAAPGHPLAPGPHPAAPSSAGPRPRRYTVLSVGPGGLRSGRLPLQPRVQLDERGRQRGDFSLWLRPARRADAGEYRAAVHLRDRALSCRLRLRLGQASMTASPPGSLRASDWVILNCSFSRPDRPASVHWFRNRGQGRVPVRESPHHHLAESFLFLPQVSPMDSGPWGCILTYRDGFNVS
Method in brief: (§1)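 Antibody 1.53.3-uAb-IgG4k or 3.40.19-uAb-hIgG4L coated at 2 μg/mL, then exposed to supernatant containing quantified LAG-3 D12.mFc mutants. Detection with HRP anti-mFc (1:5000). Absorbance normalized to mean of control mutants; binding fold change <0.75 set as epitope cutoff.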

[2] = biological target: T2, human LAG-3-ECD.D12.mFc mutant P72A (human, UniProt P18627 37-252)
T2 construct: Alanine scanning mutant; construct limits as for m26
T2 chain: T1 chain with P36A, A56W
Method in brief: as §1

[3] = biological target: T3, human LAG-3-ECD.D12.mFc mutant W135A (human, UniProt P18627 37-252)
T3 construct: Alanine scanning mutant; construct limits as for m26
T3 chain: T1 chain with A56W, W99A
Method in brief: as §1

[4] = biological target: T4, human LAG-3-ECD.D12.mFc mutant T100A (human, UniProt P18627 37-252)
T4 construct: Alanine scanning mutant; construct limits as for m26
T4 chain: T1 chain with A56W, T64A
Method in brief: as §1

[5] = biological target: T5, human LAG-3-ECD.D12.mFc mutant R163A (human, UniProt P18627 37-252)
T5 construct: Alanine scanning mutant; construct limits as for m26
T5 chain: T1 chain with A56W, R127A
Method in brief: as §1

[6] = biological target: T6, human LAG-3-ECD.D12.mFc mutant G130A (human, UniProt P18627 37-252)
T6 construct: Alanine scanning mutant; construct limits as for m26
T6 chain: T1 chain with A56W, G94A
Method in brief: as §1

[7] = biological target: T7, human LAG-3-ECD.D12.mFc mutant L136A (human, UniProt P18627 37-252)
T7 construct: Alanine scanning mutant; construct limits as for m26
T7 chain: T1 chain with A56W, L100A
Method in brief: as §1

[8] = biological target: T8, human LAG-3-ECD.D12.mFc mutant P43A (human, UniProt P18627 37-252)
T8 construct: Alanine scanning mutant; construct limits as for m26
T8 chain: T1 chain with P7A, A56W
Method in brief: as §1

Fold Change [1]: 0.554
Fold Change [2]: 0.743
B1: 1.53.3-uAb-IgG4k (antibody, V domains shown)
VH: QVQLQQWGAGLLKPSETLSLTCGVYGGSFSGYYWSWIRQPPGMGLEWIGEINHRGNTNYNPSLKSRVTISEDTSKNQFSLRLSSVTAADTAVYFCTRGEDYSDYDYYGDFWGQGTLVTVSS
VL: EIVLTQSPATLSLSQGERATLSCRASQSISSYLAWYQQKPGQAPRLLIYAASNRATGIPARFSGSGSGTDFTLTISSLEPEDFAIYYCQQRSNWPLTFGGGTKVEIK
notes: Fully human antibody from OMT rats; IgG4 kappa by its name

Fold Change [3]: 0.049
Fold Change [4]: 0.738
Fold Change [5]: 0.655
Fold Change [6]: 0.102
Fold Change [7]: 0.043
Fold Change [8]: 0.494
B2: 3.40.19-uAb-IgG4L (antibody, V domains shown)
VH: QLQLQESGPGLVKPSETLSLTCTVSGDSISSTSYYWGWIRQPPGKGLEWIGSFYYSGSTYYNPSLKSRVTISVDTSKNQFSLKLNSVTAADTAVYYCARMQLWSYDVDVWGQGTTVTVSS
VL: QSALTQPASVSGSPGQSITISCTGTSSDVGGYDYVAWYQQHPGKVPKLMIYDVSERPSGVSNRFSGSKSGNTASLTISGLQAEDEADYYCSSYTSTTTLVVFGGGTKLSVL
notes: Fully human antibody from OMT rats; IgG4 lambda by its name; also called 3.40.19-uAb-hIgG4L
